T1: Gal4 activation domain alone (pGAD424 vector, no fusion) (UniProt P04386 768-881)
T1 sequence (looked up): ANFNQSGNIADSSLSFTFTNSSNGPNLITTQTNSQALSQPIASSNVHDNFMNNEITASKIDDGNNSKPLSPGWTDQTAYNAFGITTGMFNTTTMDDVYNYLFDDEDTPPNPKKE

T2: Gal4ad-FtsA fusion (UniProt P0ABH0 1-420)
T2 sequence: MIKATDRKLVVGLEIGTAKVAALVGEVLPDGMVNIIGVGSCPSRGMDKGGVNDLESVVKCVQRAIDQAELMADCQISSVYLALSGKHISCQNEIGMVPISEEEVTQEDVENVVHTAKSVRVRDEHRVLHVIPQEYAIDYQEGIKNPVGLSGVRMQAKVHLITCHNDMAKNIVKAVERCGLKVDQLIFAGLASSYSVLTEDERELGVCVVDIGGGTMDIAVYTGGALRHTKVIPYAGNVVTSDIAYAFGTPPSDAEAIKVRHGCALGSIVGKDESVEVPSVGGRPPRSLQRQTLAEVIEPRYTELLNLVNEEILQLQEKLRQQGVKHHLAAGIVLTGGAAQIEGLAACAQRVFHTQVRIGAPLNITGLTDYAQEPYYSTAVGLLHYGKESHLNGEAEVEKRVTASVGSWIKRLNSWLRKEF

T3: B42-FtsZ fusion (pB42-FtsZ, SHp256) (Escherichia coli, UniProt P0A9A6 1-383)
T3 construct: Yeast two-hybrid prey; entire FtsZ gene cloned into pB42
T3 sequence: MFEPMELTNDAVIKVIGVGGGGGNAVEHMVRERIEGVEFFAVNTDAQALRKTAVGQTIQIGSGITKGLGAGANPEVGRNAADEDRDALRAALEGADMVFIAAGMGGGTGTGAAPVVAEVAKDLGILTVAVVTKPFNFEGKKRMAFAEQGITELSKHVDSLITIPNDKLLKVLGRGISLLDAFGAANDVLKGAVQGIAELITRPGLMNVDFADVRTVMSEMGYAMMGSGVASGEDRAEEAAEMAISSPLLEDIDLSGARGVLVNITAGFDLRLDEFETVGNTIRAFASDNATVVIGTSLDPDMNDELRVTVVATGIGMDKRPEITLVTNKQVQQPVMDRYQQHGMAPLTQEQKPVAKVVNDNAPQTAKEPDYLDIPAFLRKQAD

B1: Gal4bd-FtsZ(311-383) fusion (pAS2-1-FtsZ(311-383), SHp102) (other)
chain: MKLLSSIEQACDICRLKKLKCSKEKPKCAKCLKNNWECRYSPKTKRSPLTRAHLTEVESRLERLEQLFLLIFPREDLDMILKMDSLQDIKALLTGLFVQDNVNKDAVTDRLASVETDMPLTLRQHRISATSSSEESSNKGQRQLTVSVATGIGMDKRPEITLVTNKQVQQPVMDRYQQHGMAPLTQEQKPVAKVVNDNAPQTAKEPDYLDIPAFLRKQAD
B2: Gal4bd-OrfE fusion (pAS2-1 fusion of kil) (other)
chain: MKLLSSIEQACDICRLKKLKCSKEKPKCAKCLKNNWECRYSPKTKRSPLTRAHLTEVESRLERLEQLFLLIFPREDLDMILKMDSLQDIKALLTGLFVQDNVNKDAVTDRLASVETDMPLTLRQHRISATSSSEESSNKGQRQLTVSMIAHHFGTDEIPRQCVTPGDYVLHEGRTYIASANNIKKRKLYIRNLTTKTFITDRMIKVFLGRDGLPVKAESW
notes: also called Gal4bd-Kil
B3: LexA-OrfE fusion (kil as a fusion to the LexA DNA-binding protein) (other)
chain: MKALTARQQEVFDLIRDHISQTGMPPTRAEIAQRLGFRSPNAAEEHLKALARKGVIEIVSGASRGIRLLQEEEEGLPLVGRVAAGEPLLAQQHIEGHYQVDPSLFKPNADFLLRVSGMSMKDIGIMDGDLLAVHKTQDVRNGQVVVARIDDEVTVKRLKKQGNKVELLPENSEFKPIVVDLRQQSFTIEGLAVGVIRNGDWLMIAHHFGTDEIPRQCVTPGDYVLHEGRTYIASANNIKKRKLYIRNLTTKTFITDRMIKVFLGRDGLPVKAESW
B4: LexA alone (pLexA vector, SHp40) (other)
chain: MKALTARQQEVFDLIRDHISQTGMPPTRAEIAQRLGFRSPNAAEEHLKALARKGVIEIVSGASRGIRLLQEEEEGLPLVGRVAAGEPLLAQQHIEGHYQVDPSLFKPNADFLLRVSGMSMKDIGIMDGDLLAVHKTQDVRNGQVVVARIDDEVTVKRLKKQGNKVELLPENSEFKPIVVDLRQQSFTIEGLAVGVIRNGDWL

What was measured:
[1] = molecular target: Gal4ad-ZipA(35-185) fusion (pGAD424 fusion) (Escherichia coli); assay: cell-based or functional assay
[2] = molecular target: T1, Gal4 activation domain alone (pGAD424 …); assay: cell-based or functional assay
[3] = molecular target: Gal4ad-ZipA(35-284) fusion (pGAD424 fusion) (Escherichia coli); assay: cell-based or functional assay
[4] = molecular target: Gal4ad-ZipA(185-302) fusion (pGAD424 fusion) (Escherichia coli); assay: cell-based or functional assay
[5] = molecular target: Gal4ad-ZipA(185-328) fusion (pGAD424 fusion) (Escherichia coli, UniProt P77173 185-328); assay: cell-based or functional assay
[6] = molecular target: Gal4ad-ZipA(62-328) fusion (pGAD424 fusion) (Escherichia coli); assay: cell-based or functional assay
Gal4ad-FtsA fusion = molecular target: T2, Gal4ad-FtsA fusion; assay: yeast two-hybrid, Gal4 system
[7] = molecular target: T3, B42-FtsZ fusion (pB42-FtsZ, SHp256); assay: yeast two-hybrid (LexA fusion x B42 fusion), growth on plates without histidine
[8] = molecular target: T3, B42-FtsZ fusion (pB42-FtsZ, SHp256); assay: yeast two-hybrid (LexA/B42), LEU2 and lacZ reporters, haploids and diploids

Binder | beta-galactosidase (lacZ reporter) activity, MUG fluorescence, yeast two-hybrid [1] [units] | beta-galactosidase (lacZ reporter) activity, MUG fluorescence, yeast two-hybrid [2] [units] | beta-galactosidase (lacZ reporter) activity, MUG fluorescence, yeast two-hybrid [3] [units] | beta-galactosidase (lacZ reporter) activity, MUG fluorescence, yeast two-hybrid [4] [units] | beta-galactosidase (lacZ reporter) activity, MUG fluorescence, yeast two-hybrid [5] [units] | beta-galactosidase (lacZ reporter) activity, MUG fluorescence, yeast two-hybrid [6] [units] | binding result (Gal4ad-FtsA fusion) | binding result [7] | binding result [8]
B1 | 971 | 997 | 8620 | 828 | 2630 | 7430 |  |  | 
B2 | 1140 | 1230 | 7580 | 721 | 1910 | 8530 | no binding |  | 
B3 |  |  |  |  |  |  |  | no binding | 
B4 |  |  |  |  |  |  |  |  | no binding

— patent US20030078191A1 (published 2003)
